Assay results from publication doi:10.1101/2025.08.12.669934 (bioRxiv, 2025).
Where a chain is given by its changes, count along the chain named. Values belong to the binder of their own block, whether it stands above or below them.

Legend:
[1] = biological target: Vps13 F^2465A Y^2466A ^GFP (S. cerevisiae, UniProt Q07878 1-3144, F^2465A | Y^2466A); experiment: co-IP
[2] = biological target: Vps13^GFP (wild type) (S. cerevisiae, UniProt Q07878 1-3144); experiment: co-IP

- percent recovery relative to WT [1]: 24%
B1: Ypt35-3HA (natural protein, S. cerevisiae, UniProt P38815 1-214, looked up)
chain: MSDKISFLPPEPIQLLDEDSTEPELDIDSQQENEGPISASNSNDSTSHSNDCGATITRTRPRRSSSINANFSFQKAHVSDCTIVNGDHGTKFAVWRITVFLEPNLKAFAAKRESYKIQTYKRYSDFVRLRENLLTRIKTAKPEKLNCLQIPHLPPSVQWYSSWKYQEVNLNKDWLAKRQRGLEYFLNHIILNSSLVEMTKDILIQFLEPSKRVA

- percent recovery relative to WT [2]: 19%
B2: Ypt35 P^10,12A -3HA (natural protein, S. cerevisiae, UniProt P38815 1-214, looked up)
chain: B1 chain with P10A, P12A
